The values that follow come from paper doi:10.1101/2020.06.28.176677 (bioRxiv, 2020).

The data set “SEC” concerns the molecule itself. Description: SEC.
The data set “native gel or EMSA” concerns the molecule itself. Description: native gel or EMSA.

B1: recombinant human GCDH, unmodified (hGCDH-6xHIS) (enzyme, UniProt Q92947 45-438, looked up)
chain: RPEFDWQDPLVLEEQLTTDEILIRDTFRTYCQERLMPRILLANRNEVFHREIISEMGELGVLGPTIKGYGCAGVSSVAYGLLARELERVDSGYRSAMSVQSSLVMHPIYAYGSEEQRQKYLPQLAKGELLGCFGLTEPNSGSDPSSMETRAHYNSSNKSYTLNGTKTWITNSPMADLFVVWARCEDGCIRGFLLEKGMRGLSAPRIQGKFSLRASATGMIIMDGVEVPEENVLPGASSLGGPFGCLNNARYGIAWGVLGASEFCLHTARQYALDRMQFGVPLARNQLIQKKLADMLTEITLGLHACLQLGRLKDQDKAAPEMVSLLKRNNCGKALDIARQARDMLGGNGISDEYHVIRHAMNLEAVNTYEGTHDIHALILGRAITGIQAFTASK
Regarding B1, the “stoichiometry N” value in the data set “SEC” is 4.

B2: chemically succinylated recombinant human GCDH (succinyl-GCDH) (enzyme, UniProt Q92947 45-438, looked up)
chain: B1 chain
modifications: succinyl-lysine, 11 sites found by LC-MS/MS (sites shown in Supporting Figure 2G, not given)
For B2, the “stoichiometry N” value in “SEC” was 4.

B3: glutaryl-CoA dehydrogenase (GCDH), mouse liver mitochondria (enzyme, mouse (endogenous in liver mitochondria), UniProt Q60759 45-438, looked up)
chain: RPVFDWKDPLILEEQLTADEKLIRDTFRNYCQERLMSRILLANRNEVFHRDIVYEMGELGVLGPTIKGYGCAGVSSVAYGLLTRELERVDSGYRSMMSVQSSLVMHPIYTYGSEEQRQKYLPGLAKGELLGCFGLTEPNHGSDPGGMETRARHNPSNQSYTLSGTKTWITNSPVADLFIVWARCEDNCIRGFILEKGMRGLSAPRIEGKFSLRASATGMIIMDSVEVPEENVLPNVSSLAGPFGCLNTARYGITWGVLGAAEFCLHTARQYALDRIQFGVPLARNQLVQKKLADMLTEITLGLHACLQLGRLKDQDKATPEMVSMLKRNNCGKALDIARQARDILGGNGISDEYHVIRHAMNLEAVNTYEGTHDIHALILGRAITGIQAFTVGK
For the protein B3, the “stoichiometry N” value in the data set “native gel or EMSA” worked out at 4.
